Data on twelve molecules can be found in US20120316071A1 (published 2012).

Substitutions are numbered along the chain they refer to. Names may count otherwise.

The target of experiment [1] is T1, Recombinant Human DLL4 (human, UniProt Q9NR61 27-524).
T1 construct: Bought recombinant human DLL4 (R&D Systems 1506-D4/CF); also called delta-like protein 4; rHuman DLL4
Nature of the experiment: ELISA on plate-coated DLL4, Fab at 0.74 nM (3-fold serial dilution). On the technique in general: An ELISA detects its analyte on a solid surface through an enzyme-linked reagent.

Experiment [2] concerns the target T1, Recombinant Human DLL4. The experiment in a line: ELISA on plate-coated DLL4, Fab at 6.67 nM (3-fold serial dilution).
Experiment [3] deals with T1, Recombinant Human DLL4. Nature of the experiment: ELISA on plate-coated DLL4, Fab at 20 nM (3-fold serial dilution).
The target in experiment [4] is T1, Recombinant Human DLL4. The experiment in a line: ECL (MSD) binding assay, Fab on immobilised recombinant human DLL4; Fab concentration not given in the table.
The target in experiment [5] is T1, Recombinant Human DLL4. The experiment in a line: ELISA on plate-coated DLL4, Fab at 2.22 nM (3-fold serial dilution).
Experiment [6] concerns the target T2, Recombinant Human DLL4 (delta-like protein 4) (human, UniProt Q9NR61 27-529).
T2 construct: Bought recombinant human DLL4 (R&D Systems Cat#1506-D4/CF); also called rHuman DLL4; Delta-like 4
The experiment in a line: ELISA, DLL4 coated on plate, Fab in solution, absorbance at 450 nm.

The target of experiment [7] is T2, Recombinant Human DLL4 (delta-like …). The experiment in a line: 96-well plate ECL binding assay, DLL4 immobilised, Fab in solution.

B1: Fab VH1-46_IGHD6-6*01_IGHJ1*01 S102A/S103P/S104F/H111F I51A/N52L/S54T/G56H & L6_IGKJ1*01 S28N/S30D/S31H (Fab, V domains shown)
VH: QVQLVQSGAEVKKPGASVKVSCKASGYTFTSYYMHWVRQAPGQGLEWMGIALPTGHSTSYAQKFQGRVTMTRDTSTSTVYMELSSLRSEDTAVYYCAREEYAPFSAEYFQFWGQGTLVTVSS
VL: EIVLTQSPATLSLSPGERATLSCRASQNVDHYLAWYQQKPGQAPRLLIYDASNRATGIPARFSGSGSGTDFTLTISSLEPEDFAVYYCQQRSNWPPWTFGQGTKVEIKR
notes: Fab expressed in E. coli: VH joined to CH1 from Plasmid A (His6 and Flag tags), VL joined to kappa CL from Plasmid C; also called H:APFF ALTH & L:NDH
In the case of B1, the ELISA signal stood at 0.024 with Recombinant Human DLL4 [1], 0.232 with Recombinant Human DLL4 [2], 0.391 with Recombinant Human DLL4 [3] and 0.069 in the experiment with Recombinant Human DLL4 [5]. Moreover, the “ECL signal” value with Recombinant Human DLL4 [4] is 1840.

B2: Fab VH1-46_IGHD6-6*01_IGHJ1*01 S102A/S103P/S104F/H111F I51V/N52L/S54T/G56H & L6_IGKJ1*01 S28N/S30D/S31H S52L/A55G (Fab, V domains shown)
VH: B1 VH with A51V
VL: B1 VL with S52L, A55G
notes: Fab expressed in E. coli: VH joined to CH1 from Plasmid A (His6 and Flag tags), VL joined to kappa CL from Plasmid C; also called H:APFF VLTH & L:NDH LG
For the molecule B2, the ELISA signal with Recombinant Human DLL4 [1] turned out to be 0.397; in the experiment with Recombinant Human DLL4 [2], 0.916; in the experiment with Recombinant Human DLL4 [3], 1.06; with Recombinant Human DLL4 [5], 0.755. The “ECL signal” value with Recombinant Human DLL4 [4] was 12200.

B3: Fab VH1-46_IGHD6-6*01_IGHJ1*01 S102A/S103P/S104F/H111F I51V/N52L/S54T/G56H & L6_IGKJ1*01 S28N/S30D/S31H S52L/A55S (Fab, V domains shown)
VH: B1 VH with A51V
VL: B1 VL with S52L, A55S
notes: Fab expressed in E. coli: VH joined to CH1 from Plasmid A (His6 and Flag tags), VL joined to kappa CL from Plasmid C; also called H:APFF VLTH & L:NDH LS
In the case of B3, the ELISA signal with Recombinant Human DLL4 [1] came to 0.263; with Recombinant Human DLL4 [2], 0.747; with Recombinant Human DLL4 [3], 0.91; with Recombinant Human DLL4 [5] it was 0.523. Also, the “ECL signal” value with Recombinant Human DLL4 [4] came to 8000.

B4: Fab VH1-46_IGHD6-6*01_IGHJ1*01 S102A/S103P/S104F/H111F N52L/S54T/G56H & L6_IGKJ1*01 S28N/S30D/S31H (Fab, V domains shown)
VH: B1 VH with A51I
VL: B1 VL
notes: Fab expressed in E. coli: VH joined to CH1 from Plasmid A (His6 and Flag tags), VL joined to kappa CL from Plasmid C; also called H:APFF LTH & L:NDH
As to B4, the ELISA signal in the experiment with Recombinant Human DLL4 [1] turned out to be 0.27; with Recombinant Human DLL4 [2], 0.739; with Recombinant Human DLL4 [3], 0.863; with Recombinant Human DLL4 [5], 0.463. For the same molecule, the “ECL signal” value with Recombinant Human DLL4 [4] amounted to 6020.

B5: Fab VH1-46_IGHD6-6*01_IGHJ1*01 S102A/S103P/S104F/H111F & L6_IGKJ1*01 S28N/S30D/S31H S52W (Fab, V domains shown)
VH: B1 VH with A51I, L52N, T54S, H56G
VL: B1 VL with S52W
notes: Fab with CH1 (plasmid A, His6 and Flag tags) and kappa CL (plasmid C); also called H:APFF & L:NDH S52W
Take B5: the “ELISA (Avgerage signal-noise)” value in experiment [6] stood at 0.177. Further, the “ECL signal” value in experiment [7] came out at 16300.

B6: Fab VH1-46_IGHD6-6*01_IGHJ1*01 S102A/S103P/S104F/H111F I51V/N52L/S54T/G56H & L6_IGKJ1*01 S28N/S30D/S31H (Fab, V domains shown)
VH: B1 VH with A51V
VL: B1 VL
notes: Fab expressed in E. coli: VH joined to CH1 from Plasmid A (His6 and Flag tags), VL joined to kappa CL from Plasmid C; also called H:APFF VLTH & L:NDH
As for B6, the ELISA signal came out at 0.288 with Recombinant Human DLL4 [1], 0.776 in the experiment with Recombinant Human DLL4 [2], 0.979 with Recombinant Human DLL4 [3] and 0.608 with Recombinant Human DLL4 [5]. Besides, the “ECL signal” value with Recombinant Human DLL4 [4] is 9790.

B7: Fab VH1-46_IGHD6-6*01_IGHJ1*01 S102A/S103P/S104F/H111F I51A/N52L/S54T/G56H & L6_IGKJ1*01 S28N/S30D/S31H S52L/A55G (Fab, V domains shown)
VH: B1 VH
VL: B1 VL with S52L, A55G
notes: Fab expressed in E. coli: VH joined to CH1 from Plasmid A (His6 and Flag tags), VL joined to kappa CL from Plasmid C; also called H:APFF ALTH & L:NDH LG
For B7, the ELISA signal with Recombinant Human DLL4 [1] stood at 0.028; in the experiment with Recombinant Human DLL4 [2], 0.212; with Recombinant Human DLL4 [3] it was 0.39; in the experiment with Recombinant Human DLL4 [5] it was 0.069. In the experiment with Recombinant Human DLL4 [4], the “ECL signal” value came out at 1760.

B8: Fab VH1-46_IGHD6-6*01_IGHJ1*01 S102A/S103P/S104F/H111F N52L/S54T/G56H & L6_IGKJ1*01 S28N/S30D/S31H S52L/A55S (Fab, V domains shown)
VH: B1 VH with A51I
VL: B1 VL with S52L, A55S
notes: Fab expressed in E. coli: VH joined to CH1 from Plasmid A (His6 and Flag tags), VL joined to kappa CL from Plasmid C; also called H:APFF LTH & L:NDH LS
As to B8, the ELISA signal was 0.398 in the experiment with Recombinant Human DLL4 [1], 0.916 with Recombinant Human DLL4 [2], 1.05 with Recombinant Human DLL4 [3] and 0.557 with Recombinant Human DLL4 [5]. For the same molecule, the “ECL signal” value in the experiment with Recombinant Human DLL4 [4] was 11500.

B9: Fab VH1-46_IGHD6-6*01_IGHJ1*01 S102A/S103P/S104F/H111F & L6_IGKJ1*01 S28N/S30D/S31H S52L (Fab, V domains shown)
VH: B1 VH with A51I, L52N, T54S, H56G
VL: B1 VL with S52L
notes: Fab made in E. coli; The rest is CH1 from plasmid A (His6 and Flag tags) and kappa CL from plasmid C; also called H:APFF & L:NDH S52L
B9: the “ELISA (Avgerage signal-noise)” value in experiment [6] is 0.285. Further, in experiment [7], the “ECL signal” value was found to be 17800.

B10: Fab VH1-46_IGHD6-6*01_IGHJ1*01 S102A/S103P/S104F/H111F I51A/N52L/S54T/G56H & L6_IGKJ1*01 S28N/S30D/S31H S52L/A55S (Fab, V domains shown)
VH: B1 VH
VL: B1 VL with S52L, A55S
notes: Fab expressed in E. coli: VH joined to CH1 from Plasmid A (His6 and Flag tags), VL joined to kappa CL from Plasmid C; also called H:APFF ALTH & L:NDH LS
B10: the ELISA signal with Recombinant Human DLL4 [1] was determined as 0.046; with Recombinant Human DLL4 [2], 0.282; in the experiment with Recombinant Human DLL4 [3], 0.458; in the experiment with Recombinant Human DLL4 [5], 0.04. In addition, the “ECL signal” value in the experiment with Recombinant Human DLL4 [4] turned out to be 3720.

B11: Fab VH1-46_IGHD6-6*01_IGHJ1*01 S102A/S103P/S104F/H111F & L6_IGKJ1*01 S28N/S30D/S31H S52M (Fab, V domains shown)
VH: B1 VH with A51I, L52N, T54S, H56G
VL: B1 VL with S52M
notes: Fab with CH1 (plasmid A, His6 and Flag tags) and kappa CL (plasmid C); also called H:APFF & L:NDH S52M
In the case of B11, in experiment [6], the “ELISA (Avgerage signal-noise)” value worked out at 0.185. Further, the “ECL signal” value in experiment [7] was found to be 19500.

B12: Fab VH1-46_IGHD6-6*01_IGHJ1*01 S102A/S103P/S104F/H111F & L6_IGKJ1*01 S28N/S30D/S31H S52T (Fab, V domains shown)
VH: B1 VH with A51I, L52N, T54S, H56G
VL: B1 VL with S52T
notes: Fab with CH1 (plasmid A, His6 and Flag tags) and kappa CL (plasmid C); also called H:APFF & L:NDH S52T
With B12, the “ELISA (Avgerage signal-noise)” value in experiment [6] amounted to 0.263. The “ECL signal” value in experiment [7] came out at 20100.
